According to publication doi:10.1101/2020.02.18.953257:

Biological target: human Replication Factor C (hRFC) with RFC1ΔN555 (human) (UniProt P35251)

Substance: S228I-PCNA (from UniProt P12004 1-261) (natural protein)
- apparent Kd from hRFC ATPase activity as a function of PCNA concentration: 0.12 µM
